Measurements from publication PMC8568140, “Assembly of infectious Kaposi’s sarcoma-associated herpesvirus progeny requires formation of a pORF19 pentamer” (PLoS Biology, 2021).
Residue numbers refer to the chain shown, from its start. Names and notes keep the numbering of the source.

How the values were obtained:
[1] = target: Baculovirus-produced KSHV capsids lacking the portal protein pORF43, Q2HRA7;Q2HRB6; experiment: western blot of gradient-purified capsids (capsid assembly assay in insect cells), band intensity quantified; settings: 3 independent biological replicates; capsid loading normalized to pORF25-V5 and pORF26; parent: est. 100; read off a plot
[2] = target: the molecule itself; experiment: crystal structure; hanging drop, 18°C, 0.1 M HEPES pH 7.5, 1.69 M lithium acetate (native, P212121, 2.6 Å); selenomethionine derivative in 0.1 M MES pH 7.4, 2 M lithium acetate (P21, P6322)
[3] = target: the molecule itself; experiment: AUC; sedimentation velocity, 40,000 rpm, 20°C, LiAc buffer with 50 mM HEPES pH 7.5 and 0.5 M lithium acetate; interface mutants at 127 μM, oxidized pORF19_(KCTD)CC at 11 μM

“GFP-tagged wt pORF19 (ORF19-GFP) of KSHV D173A; Q177A” was tested, and the percent of parent (% of wt pORF19) [1] was 93.

For “GFP-tagged wt pORF19 (ORF19-GFP) of KSHV V463W; L465Y”, the percent of parent (% of wt pORF19) [1] was 91.

With “GFP-tagged wt pORF19 (ORF19-GFP) of KSHV loop (156MNQNQ160 replaced by a flexible linker)” the percent of parent (% of wt pORF19) [1] was 92.

B1: KSHV pORF19 carboxyl-terminal domain (pORF19_(KCTD)) (domain or fragment)
chain: ASHRNFTVAIVPGDPHFSVDRDLRGELMPTLYMNQNQWLPSFGPWFISLTDNAMQRRVFPKELKGTVNFQNSTSLKLISHTLTTVASTTADFFADARHLTDTQAALCLVNAYFCQKTSRQLPATPDDLLADLPQKLDLLITQLKQESGPGDFSFTYSNPQERASLAPLNKESRYPTAFFQRHKLHAMMAKAGLFPHNKGTGAPGTAPAMDLVFAITSAMFGSDIPPFSAYQWNLRAGIVALEVFILAYGLLEFGQVARGHPNRRLNLVSLLGPKFQPGALPDPNAPMLKRGQLFSFISEHYIIPTLQANPNAPVSFIFPGIILAALEARSTVSHKQPGPFVNLTGSRFNEIFEILNQQLTFRDPLALLQARTALRLATEEGLDVLLSHPSPPTLLQEIIKSQFGGGDDYDRAYFMVLGCLPVVLAVV
notes: The His tag was removed with carboxypeptidase after a first SEC; Two of the three crystal forms (P21, P6322) were of a selenomethionine derivative; also called wt pORF19_(KCTD); KSHV pORF19 CTD; source: E. coli Rosetta (DE3), purified (HisTrap, SEC); not shown: His tag, C-terminal, cleaved
With B1 the “stoichiometry N” value [2] was 5.

B2: oxidized pORF19_(KCTD)CC (KSHV pORF19 CTD with P137C and P461C) (domain or fragment)
chain: B1 chain with P15C, P339C
modifications: engineered inter-protomeric disulfide bond between the cysteines introduced at 137 and 461 (oxidized form)
notes: pORF19 of Kaposi's sarcoma-associated herpesvirus, residues 123 to 549, with two prolines changed to cysteines; The protomers of the oxidized form are covalently linked by the engineered disulfide bond; also called pentameric pORF19KCTDCC; source: E. coli Rosetta (DE3), purified as pORF19_(KCTD); oxidized with 2 mM GSSG in 0.5 M lithium acetate, then SEC (Superose 6 Increase); not shown: His tag, …
With B2 the “stoichiometry N” value [3] was 5.
